Values quoted from earlier work, collected in publication PMC3150215.
Read-outs that look alike come from different tables or passages of the source.

Assays:
[1] = molecular target: Capping protein (Mus musculus) (UniProt P47753)
[2] = molecular target: Capping protein (Mus musculus) (UniProt P47753); remark: listed apart in the source

Substance | Kd [1] [nM] | Kd [2] [nM]
CARMIL CBR115 CBR115 (from UniProt Q6EDY6) | 1.5 | 
CD2AP 474-513 (from UniProt Q9Y5K6) |  | 6
